Data published in the supplement of paper PMC9170038.

System: MS2 coat protein
Assay: apparent KD of MS2 coat protein; designed switch direction (-1 OFF switch, 1 ON switch): -1; higher = weaker reporter binding
How it was run: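 The buffer was Tris-HCl pH 7.5 with KCl, MgCl2, BSA, DTT, tRNA and Tween-20. In it, SNAP-549-labelled MS2 coat protein was titrated in doubling steps from 0.7 or 1.5 nM to 3 µM over chip-bound RNA switches transcribed by stalled E. coli RNA polymerase on Illumina chips. Apparent KD is the per-design median over clusters of curve fits to normalised fluorescence.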

[1] = Eterna round: R95, input ligand: microRNA oligo, concentration not stated
[2] = Eterna round: R95, input ligand: FMN 200 uM
[3] = Eterna round: R95, input ligand: none
[4] = input ligand: microRNA oligo, concentration not stated

Sequence: GAUGAGAGAGGAUAUACAUGAGGAUCACCCAUGUAAUUUUCGGACAUGGAAGCUGGAUGUAGAAGGCUCGCAUG [Leritete] (puzzle: Exclusion 3)
- apparent KD of MS2 coat protein [1]: 19.6 nM

Sequence: CAUUACUGCAGGCUUCGGGACAUGAGGAUCACCCAUGUUCGUCUUAUUGAUCUAGGUACGCUGACGUACCUAGAUCU [JL-sv1-2.25 Brourd mod] (puzzle: Sensor v3, turn-off variant 1)
- apparent KD of MS2 coat protein [2]: 17.3 nM
- apparent KD of MS2 coat protein [1]: 16.1 nM
- apparent KD of MS2 coat protein [3]: 15.6 nM

Sequence: CUUCGUAUAGAGGAUAUAGGUUACUUCGGUAUCCUAGAAGGCUGUACAUGAGGAUCACCCAUGUACUUCAGAUC [Exclusion 6 - B - 13:a] (puzzle: Exclusion 6)
- apparent KD of MS2 coat protein [1]: 12.2 nM

Sequence: UAGAAUCGAGGAUAUACAUGAGGAUCACCCAUGUGUUGCCGCAUGAUAUGAUCGUCAGGUAGAAGGCGAUUAUA [Exclusion 3 - Mod of Jieux's Gilly Gone Silly 23 v.6] (puzzle: Exclusion 3)
- apparent KD of MS2 coat protein [2]: 37.6 nM
- apparent KD of MS2 coat protein [1]: 83.4 nM
- apparent KD of MS2 coat protein [3]: 82.9 nM

Sequence: AAUAAUGCAGGAUAUACAUGAGGAUCACCCAUGUGAAUAAAAUAAAUAAAAUGAUAAAGUAGAAGGGCAAAUAA [JMF's solution 1] (puzzle: Exclusion 3)
- apparent KD of MS2 coat protein [2]: 28 nM
- apparent KD of MS2 coat protein [1]: 28.8 nM
- apparent KD of MS2 coat protein [3]: 35.5 nM

Sequence: CGUGCGUAUGUGAGGAUAUGCUGGUCCUUGGCUCGGCAGAAGGCACAUGAGGAUCACCCAUGUGGUGUCGUACG [salish99_Bmod_ex4_062] (puzzle: Brourd's mod of Exclusion 4)
- apparent KD of MS2 coat protein [2]: 53.4 nM
- apparent KD of MS2 coat protein [1]: 152 nM
- apparent KD of MS2 coat protein [3]: 171 nM

Sequence: UUCACAUGGACAUGAGAUCACAUGAGGAUCACCCAUGUGAAUAACAAGCUUUUUGUUCGUCUUAUGUCCAAUAAUAG [Stov1/14-D3] (Eterna round: R97, puzzle: Sensor, turn-off variant 1)
- apparent KD of MS2 coat protein (input ligand: FMN 200 uM): 14 nM
- apparent KD of MS2 coat protein (input ligand: none): 14.1 nM

Sequence: CCGAGCAUAUGAGGAUCAGACAUGAGGAUCACCCAUGUGCUCCGUCGAAGGAAUAAUCAUAAUGCUGGCUCGUCGUG [Eternabot (L2) Solution 6] (Eterna round: R97, puzzle: Sensor, turn-off variant 1)
- apparent KD of MS2 coat protein (input ligand: FMN 200 uM): 555 nM
- apparent KD of MS2 coat protein (input ligand: none): 457 nM

Sequence: GAUUAUGCAAGCUUUUGGGACAUGAGGAUCACCCAUGUUCGUCUUAUUGAUCUAGGUACGCUGACGUACCUAGAUCU [JL-sv1-2.32 Brourd mod] (puzzle: Sensor v3, turn-off variant 1)
- apparent KD of MS2 coat protein [2]: 18.1 nM
- apparent KD of MS2 coat protein [1]: 62.2 nM
- apparent KD of MS2 coat protein [3]: 17.6 nM

Sequence: UCACGGGACUGAGGAUAUACAUGAAUUAUUUUUGUAGAAGGCAGAAUGUUAGAUUAUUCACUAUACAUGAGGAUCACCCAUGUU [JR_ExcNG1_Sub022] (Eterna round: R96, puzzle: Exclusion NG 1)
- apparent KD of MS2 coat protein [4]: 18.8 nM

Sequence: UACUAUAAGGAGGAUAUCGUAUCGGAGACGAUACGAGAAGGCUUAACAUGAGGAUCACCCAUGUUCUUCAAUAU [Mat - Exclusion 6 - Eli Mod - D91] (puzzle: Exclusion 6)
- apparent KD of MS2 coat protein [1]: 14.8 nM

Sequence: UUUGAAUAAGUGAGGAUAUACUGUUAGUAAUGAUUGUAGAAGGUACAUGAGGAUCACCCAUGUUUAUUAUUUAU [JR_BME4_Sub039] (puzzle: Brourd's mod of Exclusion 4)
- apparent KD of MS2 coat protein [1]: 20.7 nM

Sequence: UAUGGUUAAGUCAGGAUAUACAAAUAGAAAUCUGAGUAGAAGGGACAUGAGGAUCACCCAUGUAUGGUAGUGUU [Ex4 #57] (Eterna round: R97, puzzle: Brourd's mod of Exclusion 4)
- apparent KD of MS2 coat protein (input ligand: FMN 200 uM): 79 nM
- apparent KD of MS2 coat protein (input ligand: none): 74.3 nM

Sequence: AAAAGCUAAGGAUAUACAUGAGGAUCACCCAUGUACACCGGUACGGGUGCGAACUCCUGUAGAAGGUGGGAUAA [Atatlege] (puzzle: Exclusion 3)
- apparent KD of MS2 coat protein [1]: 121 nM

Sequence: ACAUGAGGAUCACCCAUGUCAGGUUGGUUCUCUCCGGCUGUUGAGGAUAUAGUCCGGUAUCCGCGCUAGAAGGUGAGGGCUGGC [Aenatbe mod 14] (Eterna round: R96, puzzle: Exclusion NG 3)
- apparent KD of MS2 coat protein (input ligand: FMN 200 uM): 19.6 nM
- apparent KD of MS2 coat protein [4]: 20.1 nM
- apparent KD of MS2 coat protein (input ligand: none): 25.1 nM

Sequence: AUAAUGUGAGGAUAUCAGUCGACUAGCCUCGGCUAGUCGACUGAGAAGGCACAUGAGGAUCACCCAUGUAGAUC [E4/17-A2] (Eterna round: R97, puzzle: Exclusion 4)
- apparent KD of MS2 coat protein (input ligand: FMN 200 uM): 75.8 nM
- apparent KD of MS2 coat protein (input ligand: none): 825 nM

Sequence: AGUACAAACACGAAAGUGUUUGUACAAUAAGCUUGUGGAACAUGAGGAUCACCCAUGUCCUCAUAAGCUCGUCUUAU [Mat - Sensor v3 - Turn-off var 2 - D29] (puzzle: Sensor v3, turn-off variant 2)
- apparent KD of MS2 coat protein [2]: 15.7 nM
- apparent KD of MS2 coat protein [1]: 87.1 nM
- apparent KD of MS2 coat protein [3]: 14.5 nM

Sequence: UCUUAGCAAGCAAAUGGGUACAUGAGGAUCACCCAUGUGCUCGUCUUAUAAGGUACUGUGACGAAAGUCACGGUACC [mod--Eli8] (Eterna round: R97, puzzle: Sensor, turn-off variant 1)
- apparent KD of MS2 coat protein (input ligand: FMN 200 uM): 24.7 nM
- apparent KD of MS2 coat protein (input ligand: none): 19.5 nM

Sequence: AGUCAGGCGGUAGGAUAUCCAAAUCGAGUGACCCUCUCAUAACAUGAGGAUCACCCAUGUCGGUGGGAGAAGGGCCGUAAGGCG [Mat - Exclusion NG 2 - Mod of JL - D63] (Eterna round: R96, puzzle: Exclusion NG 2)
- apparent KD of MS2 coat protein (input ligand: FMN 200 uM): 48.2 nM
- apparent KD of MS2 coat protein [4]: 25.8 nM
- apparent KD of MS2 coat protein (input ligand: none): 29.5 nM

Sequence: UCCUCGUCAGGAUAUGUCUCGACGCGGUCCGCGUGCGGUCAACAGAAGGGACAUGAGGAUCACCCAUGUGCAGA [Eternabot (Original) Solution 38] (Eterna round: R97, puzzle: Exclusion 4)
- apparent KD of MS2 coat protein (input ligand: FMN 200 uM): 228 nM
- apparent KD of MS2 coat protein (input ligand: none): 204 nM

Sequence: CAGUACUGAGGAUAUACAUGAGGAUCACCCAUGUCUUAAAAGUAGGAUACUACUAUUAGUAGAAGGCAGUACUG [Fiskers Ex 3 828 mod 24] (Eterna round: R96, puzzle: Exclusion 3)
- apparent KD of MS2 coat protein (input ligand: FMN 200 uM): 38.5 nM
- apparent KD of MS2 coat protein [4]: 12.3 nM
- apparent KD of MS2 coat protein (input ligand: none): 17 nM

Sequence: AAGUACCGUCACGAUAGUGAUGGUACAACAAGCAAAUGUACAUGAGGAUCACCCAUGUCCUCUUUUGCUCGUCUUGU [Sensor 3 - 100] (puzzle: Sensor v3, turn-off variant 2)
- apparent KD of MS2 coat protein [2]: 155 nM
- apparent KD of MS2 coat protein [1]: 30.2 nM

Sequence: UCGGCGCGAGGAUAUGCGGUUUGUGCUUCGGGCCCUCGCGUACAUGAGGAUCACCCAUGUAGAAGGCGCGCCGC [Apr-15 SS2-45] (puzzle: Exclusion 2)
- apparent KD of MS2 coat protein [1]: 75.2 nM

Sequence: CGAUGCUCGAGUCCACAUGAGGAUCACCCAUGUCGAGUUAGCGAGGAUAUCGGAGACACAUAGUAUGAGAAGGCGCGAACCUGA [Ex NG3 #20] (Eterna round: R96, puzzle: Exclusion NG 3)
- apparent KD of MS2 coat protein (input ligand: FMN 200 uM): 10 nM
- apparent KD of MS2 coat protein [4]: 11.3 nM
- apparent KD of MS2 coat protein (input ligand: none): 13.6 nM

Sequence: AUAAUGUCAGGAUAUCAGUCGUACAGCCUCGGCUGUACGACUGAGAAGGGACAUGAGGAUCACCCAUGUGGUCA [E4/6-A2] (Eterna round: R97, puzzle: Exclusion 4)
- apparent KD of MS2 coat protein (input ligand: FMN 200 uM): 42.4 nM
- apparent KD of MS2 coat protein (input ligand: none): 155 nM

Sequence: CCGAGGUAGCGGUCCUAUGACAUGAGGAUCACCCAUGUACCUCGCUACGAGCUUUUUGCUCGUCAUAUAAUUCUCGG [Mat - Sensor v3 - turn-off var 1 - JL Mod - D30] (puzzle: Sensor v3, turn-off variant 1)
- apparent KD of MS2 coat protein [2]: 45.4 nM
- apparent KD of MS2 coat protein [1]: 57.9 nM
- apparent KD of MS2 coat protein [3]: 66.3 nM

Sequence: AGGAAACAUGAGGAUCACCCAUGUGAGGAUAUGAAAAAGAAAAGAAAAGAAAGAAGAAUCAGAAGGCACAAAGG [Mat - Mod of Hog D1] (puzzle: Exclusion 1)
- apparent KD of MS2 coat protein [2]: 52.9 nM
- apparent KD of MS2 coat protein [1]: 32 nM
- apparent KD of MS2 coat protein [3]: 45.9 nM

Sequence: ACACCUCACGUCAGGAUAUCUAUCUCGAGUGAGGAAGAGAAGGGACAUGAGGAUCACCCAUGUAUAGAAAGAAU [Usissodi] (Eterna round: R97, puzzle: Brourd's mod of Exclusion 4)
- apparent KD of MS2 coat protein (input ligand: FMN 200 uM): 125 nM
- apparent KD of MS2 coat protein (input ligand: none): 27.2 nM

Sequence: AAAUGUGCGAGAGGAUAUCGUGUACAAAGUACACGAGAAGGCUUCACAUGAGGAUCACCCAUGUACCGAGGUGAAACACCUUGA [Omei Exc(NG)1 Bv4] (Eterna round: R96, puzzle: Exclusion NG 1)
- apparent KD of MS2 coat protein (input ligand: FMN 200 uM): 599 nM
- apparent KD of MS2 coat protein [4]: 149 nM
- apparent KD of MS2 coat protein (input ligand: none): 198 nM

Sequence: CGAUGCUCGUGGCCACAUGAGGAUCACCCAUGUCGAGUUAGCGAGGAUAUCGGUAGCACAUAUCACGAGAAGGCGCGAACCUGA [Ex NG3 #29] (Eterna round: R96, puzzle: Exclusion NG 3)
- apparent KD of MS2 coat protein (input ligand: FMN 200 uM): 32.3 nM
- apparent KD of MS2 coat protein [4]: 10.9 nM
- apparent KD of MS2 coat protein (input ligand: none): 12 nM

Sequence: CUCGGACAUGAGGAUCACCCAUGUGAGGAUAUGGUGCUAUCGUCAUUAGACGAUUGCGUUAGAAGGCAUAUUUU [LRO-Excl1-30] (puzzle: Exclusion 1)
- apparent KD of MS2 coat protein [1]: 24.4 nM

Sequence: UUAUACGUUGAGGAUAUGUCAGUUAGUAUAUUUACAGAAGGCGAUACAUGAGGAUCACCCAUGUUUAUGGGCAU [Ex-6 Malc#3] (puzzle: Exclusion 6)
- apparent KD of MS2 coat protein [1]: 127 nM

Sequence: GUCUUGAUAGGAUAUACAUGAGGAUCACCCAUGUCCCACCCGUUACCUCUGACCCUAUGUAGAAGGAUCGUCUG [Exy#18] (Eterna round: R97, puzzle: Exclusion 3)
- apparent KD of MS2 coat protein (input ligand: FMN 200 uM): 30.4 nM
- apparent KD of MS2 coat protein (input ligand: none): 35.5 nM

Sequence: AAUAAACAUGAGGAUCACCCAUGUGAGGAUAUACAAAUAAAUAAAUAAAUAAAUAAUAGUAGAAGGCACAAUAA [Excls1-II] (puzzle: Exclusion 1)
- apparent KD of MS2 coat protein [2]: 35.9 nM
- apparent KD of MS2 coat protein [1]: 35.3 nM
- apparent KD of MS2 coat protein [3]: 44 nM

Sequence: UAUUAGCAAGCAAAUGGGUACAUGAGGAUCACCCAUGUGCUCGUCUUAUAAGGUACUGUGACGAAAGUCACGGUACC [Eli 91 v35] (Eterna round: R97, puzzle: Sensor, turn-off variant 1)
- apparent KD of MS2 coat protein (input ligand: FMN 200 uM): 24.6 nM
- apparent KD of MS2 coat protein (input ligand: none): 22.5 nM
